Measurements as given in article PMC6688830, “A Ubiquitin-Binding Domain that Binds a Structural Fold Distinct from that of Ubiquitin” (Structure(London, England:1993), 2019).

T1: FLAG-SMARCAD1 (WT) (human, UniProt Q9H4L7 1-1026)
T1 construct: SMARCAD1, human, UniProt Q9H4L7, full length; also called wild-type SMARCAD1; pET28a-SUMO-F-SMARCAD1; source: E. coli BL-21 CodonPlus (DE3)-RIL, purified (HisTrap, Ulp1, heparin, ProSwift SAX)
T1 sequence (looked up): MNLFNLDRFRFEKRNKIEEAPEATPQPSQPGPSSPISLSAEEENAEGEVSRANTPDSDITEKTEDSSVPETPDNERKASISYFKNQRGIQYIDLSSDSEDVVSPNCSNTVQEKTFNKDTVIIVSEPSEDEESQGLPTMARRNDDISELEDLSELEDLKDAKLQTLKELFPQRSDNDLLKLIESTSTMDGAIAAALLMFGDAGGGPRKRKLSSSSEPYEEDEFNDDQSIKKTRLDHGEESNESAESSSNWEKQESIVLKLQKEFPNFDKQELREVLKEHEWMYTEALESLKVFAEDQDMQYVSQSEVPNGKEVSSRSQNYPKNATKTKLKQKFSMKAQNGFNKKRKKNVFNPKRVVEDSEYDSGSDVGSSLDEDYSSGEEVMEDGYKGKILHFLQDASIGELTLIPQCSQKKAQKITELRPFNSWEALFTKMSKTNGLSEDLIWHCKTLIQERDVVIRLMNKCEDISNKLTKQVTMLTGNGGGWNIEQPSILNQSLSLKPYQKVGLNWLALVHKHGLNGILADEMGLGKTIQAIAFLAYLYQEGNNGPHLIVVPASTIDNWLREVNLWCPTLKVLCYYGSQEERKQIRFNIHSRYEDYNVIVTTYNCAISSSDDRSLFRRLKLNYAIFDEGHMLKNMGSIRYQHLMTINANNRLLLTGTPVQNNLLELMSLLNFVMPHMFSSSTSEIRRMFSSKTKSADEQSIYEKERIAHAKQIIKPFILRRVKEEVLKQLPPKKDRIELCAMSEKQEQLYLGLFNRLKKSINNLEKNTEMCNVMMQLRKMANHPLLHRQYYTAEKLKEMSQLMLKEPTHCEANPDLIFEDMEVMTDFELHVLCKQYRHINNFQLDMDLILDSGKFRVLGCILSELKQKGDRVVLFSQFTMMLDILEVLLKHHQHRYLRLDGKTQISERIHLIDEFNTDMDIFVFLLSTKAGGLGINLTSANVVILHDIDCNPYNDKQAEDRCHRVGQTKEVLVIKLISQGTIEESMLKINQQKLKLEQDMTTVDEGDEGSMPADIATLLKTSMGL


target: T2, Ubiquitin (UniProt P0CG48 1-76); test: ITC; MicroCal ITC200, 10°C; 120 μM SMARCAD1 CUE1 or CUE1,2 in the cell, 9.8 mM mono-Ub in the syringe; 10 mM Tris-HCl pH 7.9, 100 mM NaCl, 5 mM β-ME; One set of sites model; details: both partners purified
T2 construct: ubiquitin, monomeric, the cut product of a ubiquitin precursor; also called mono-Ub; monomeric ubiquitin; source: bought: Boston Biochem (purified recombinant)

Kd [µM]	Binder
~952	FLAG-CUE1 (domain or fragment, human, UniProt Q9H4L7 95-237, looked up, SMARCAD1, human, UniProt Q9H4L7, residues S95-E237 (first CUE domain); also called wild-type CUE1 fragment (S95-E237); SMARCAD1 CUE1; source: E. coli BL-21 CodonPlus (DE3)-RIL, purified (Ni-NTA, Ulp1, Mono Q if required)) SSDSEDVVSPNCSNTVQEKTFNKDTVIIVSEPSEDEESQGLPTMARRNDDISELEDLSELEDLKDAKLQTLKELFPQRSDNDLLKLIESTSTMDGAIAAALLMFGDAGGGPRKRKLSSSSEPYEEDEFNDDQSIKKTRLDHGE

target: T1, FLAG-SMARCAD1 (WT); test: co-IP; purified full-length SMARCAD1 and KAP1 from E. coli, 7μg each in 280μL SK binding buffer, 200mM NaCl, 4°C; immunoprecipitated with anti-FLAG M2 affinity gel; details: both partners purified

binding result	Binder
binds	HA-KAP1 (natural protein, human, UniProt Q13263 1-835, looked up, KAP1 (TRIM28), human, UniProt Q13263, full length; also called hemagglutinin-tagged KAP1; TRIM28; source: E. coli BL-21 CodonPlus (DE3)-RP, purified (HisTrap, Ulp1, heparin, Sephacryl S-400)) MAASAAAASAAAASAASGSPGPGEGSAGGEKRSTAPSAAASASASAAASSPAGGGAEALELLEHCGVCRERLRPEREPRLLPCLHSACSACLGPAAPAAANSSGDGGAAGDGTVVDCPVCKQQCFSKDIVENYFMRDSGSKAATDAQDANQCCTSCEDNAPATSYCVECSEPLCETCVEAHQRVKYTKDHTVRSTGPAKSRDGERTVYCNVHKHEPLVLFCESCDTLTCRDCQLNAHKDHQYQFLEDAVRNQRKLLASLVKRLGDKHATLQKSTKEVRSSIRQVSDVQKRVQVDVKMAILQIMKELNKRGRVLVNDAQKVTEGQQERLERQHWTMTKIQKHQEHILRFASWALESDNNTALLLSKKLIYFQLHRALKMIVDPVEPHGEMKFQWDLNAWTKSAEAFGKIVAERPGTNSTGPAPMAPPRAPGPLSKQGSGSSQPMEVQEGYGFGSGDDPYSSAEPHVSGVKRSRSGEGEVSGLMRKVPRVSLERLDLDLTADSQPPVFKVFPGSTTEDYNLIVIERGAAAAATGQPGTAPAGTPGAPPLAGMAIVKEEETEAAIGAPPTATEGPETKPVLMALAEGPGAEGPRLASPSGSTSSGLEVVAPEGTSAPGGGPGTLDDSATICRVCQKPGDLVMCNQCEFCFHLDCHLPALQDVPGEEWSCSLCHVLPDLKEEDGSLSLDGADSTGVVAKLSPANQRKCERVLLALFCHEPCRPLHQLATDSTFSLDQPGGTLDLTLIRARLQEKLSPPYSSPQEFAQDVGRMFKQFNKLTEDKADVQSIIGLQRFFETRMNEAFGDTKFSAVLVEPPPMSLPGAGLSSQELSGGPGDGP

target: T3, KAP1 S33-K434 (human, UniProt Q13263 33-434); test: ITC; MicroCal ITC200, 20°C; KAP1 RBCC (9-18 μM) in the cell, SMARCAD1 CUE1 or CUE1,2 (90-300 μM) in the syringe; 10 mM Tris-HCl pH 7.9, 100 mM NaCl, 5 mM β-ME; One set of sites model; details: both partners purified
T3 construct: KAP1 (TRIM28), human, UniProt Q13263, residues S33-K434 (RBCC domain); The crystal structures of shorter RBCC constructs show an antiparallel homodimer; also called KAP1 RBCC (S33-K434); KAP1 RBCC; source: E. coli BL-21 CodonPlus (DE3)-RP, purified (Ni-NTA, Ulp1, Mono Q)

Kd [µM]	Binder
~0.158	FLAG-CUE1 (domain or fragment, human, UniProt Q9H4L7 95-237, looked up, SMARCAD1, human, UniProt Q9H4L7, residues S95-E237 (first CUE domain); also called wild-type CUE1 fragment (S95-E237); SMARCAD1 CUE1; source: E. coli BL-21 CodonPlus (DE3)-RIL, purified (Ni-NTA, Ulp1, Mono Q if required)) SSDSEDVVSPNCSNTVQEKTFNKDTVIIVSEPSEDEESQGLPTMARRNDDISELEDLSELEDLKDAKLQTLKELFPQRSDNDLLKLIESTSTMDGAIAAALLMFGDAGGGPRKRKLSSSSEPYEEDEFNDDQSIKKTRLDHGE

target: T3, KAP1 S33-K434; test: co-IP; purified SMARCAD1 fragments (FLAG-CUE1,2, FLAG-CUE1) and KAP1 RBCC, 9.6μg each in 240μL, 4°C 1 hour; anti-FLAG M2 affinity gel 3 hours; details: both partners purified

binding result	Binder
binds	FLAG-CUE1,2 P170A (domain or fragment, human, UniProt Q9H4L7 95-347, looked up, SMARCAD1, human, UniProt Q9H4L7, CUE1,2 fragment S95-N347; source: E. coli BL-21 CodonPlus (DE3)-RIL, purified (Ni-NTA, Ulp1, Mono Q if required)) SSDSEDVVSPNCSNTVQEKTFNKDTVIIVSEPSEDEESQGLPTMARRNDDISELEDLSELEDLKDAKLQTLKELFAQRSDNDLLKLIESTSTMDGAIAAALLMFGDAGGGPRKRKLSSSSEPYEEDEFNDDQSIKKTRLDHGEESNESAESSSNWEKQESIVLKLQKEFPNFDKQELREVLKEHEWMYTEALESLKVFAEDQDMQYVSQSEVPNGKEVSSRSQNYPKNATKTKLKQKFSMKAQNGFNKKRKKN
binds	FLAG-CUE1,2 K161A (domain or fragment, human, UniProt Q9H4L7 95-347, looked up, SMARCAD1, human, UniProt Q9H4L7, CUE1,2 fragment S95-N347; source: E. coli BL-21 CodonPlus (DE3)-RIL, purified (Ni-NTA, Ulp1, Mono Q if required)) SSDSEDVVSPNCSNTVQEKTFNKDTVIIVSEPSEDEESQGLPTMARRNDDISELEDLSELEDLKDAALQTLKELFPQRSDNDLLKLIESTSTMDGAIAAALLMFGDAGGGPRKRKLSSSSEPYEEDEFNDDQSIKKTRLDHGEESNESAESSSNWEKQESIVLKLQKEFPNFDKQELREVLKEHEWMYTEALESLKVFAEDQDMQYVSQSEVPNGKEVSSRSQNYPKNATKTKLKQKFSMKAQNGFNKKRKKN
binds	FLAG-CUE1,2 Q171A (domain or fragment, human, UniProt Q9H4L7 95-347, looked up, SMARCAD1, human, UniProt Q9H4L7, CUE1,2 fragment S95-N347; source: E. coli BL-21 CodonPlus (DE3)-RIL, purified (Ni-NTA, Ulp1, Mono Q if required)) SSDSEDVVSPNCSNTVQEKTFNKDTVIIVSEPSEDEESQGLPTMARRNDDISELEDLSELEDLKDAKLQTLKELFPARSDNDLLKLIESTSTMDGAIAAALLMFGDAGGGPRKRKLSSSSEPYEEDEFNDDQSIKKTRLDHGEESNESAESSSNWEKQESIVLKLQKEFPNFDKQELREVLKEHEWMYTEALESLKVFAEDQDMQYVSQSEVPNGKEVSSRSQNYPKNATKTKLKQKFSMKAQNGFNKKRKKN
